In assay [1] the target is HA-tagged KLC1 (kinesin light chain 1) (UniProt O88447). The assay can be described thus: co-immunoprecipitation (IP with anti-mCherry, western blot band intensity). The conditions noted are these: COS cells cotransfected, n = 6 experiments, parent: est. 1, read off a plot.
Assay [2] concerns the target HA-tagged KLC2 (kinesin light chain 2) (UniProt O88448). Described as above. The conditions noted are these: COS cells cotransfected, n = 4 experiments, parent: est. 1, read off a plot.
Assay [3] has as its target KLC2^TPR, purified TPR domain of KLC2. The assay can be described thus: fluorescence polarisation; TAMRA-conjugated DIC1 tryptophan-motif peptides with purified KLC1 or KLC2 TPR domain; KD values determined at 150 mM NaCl. In general terms: Fluorescence polarisation rises when a labelled molecule tumbles more slowly, as on binding a larger partner.

Sequence of HA-tagged KLC1 (kinesin light chain 1) (O88447 whole entry): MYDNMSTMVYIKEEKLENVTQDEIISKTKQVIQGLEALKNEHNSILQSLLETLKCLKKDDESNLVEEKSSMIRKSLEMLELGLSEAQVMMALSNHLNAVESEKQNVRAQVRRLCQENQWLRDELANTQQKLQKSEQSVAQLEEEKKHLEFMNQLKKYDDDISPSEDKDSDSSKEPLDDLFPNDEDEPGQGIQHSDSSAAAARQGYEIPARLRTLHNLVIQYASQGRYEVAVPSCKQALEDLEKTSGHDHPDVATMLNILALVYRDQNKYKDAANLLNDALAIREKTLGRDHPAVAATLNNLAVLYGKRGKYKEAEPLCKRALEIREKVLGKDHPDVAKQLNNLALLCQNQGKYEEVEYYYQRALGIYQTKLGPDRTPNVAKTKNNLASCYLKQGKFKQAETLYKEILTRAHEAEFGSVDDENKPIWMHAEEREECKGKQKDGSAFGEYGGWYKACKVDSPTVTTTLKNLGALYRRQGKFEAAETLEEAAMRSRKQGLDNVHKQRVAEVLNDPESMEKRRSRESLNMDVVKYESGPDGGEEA
Sequence of HA-tagged KLC2 (kinesin light chain 2) (O88448 whole entry, the tested form may be a part): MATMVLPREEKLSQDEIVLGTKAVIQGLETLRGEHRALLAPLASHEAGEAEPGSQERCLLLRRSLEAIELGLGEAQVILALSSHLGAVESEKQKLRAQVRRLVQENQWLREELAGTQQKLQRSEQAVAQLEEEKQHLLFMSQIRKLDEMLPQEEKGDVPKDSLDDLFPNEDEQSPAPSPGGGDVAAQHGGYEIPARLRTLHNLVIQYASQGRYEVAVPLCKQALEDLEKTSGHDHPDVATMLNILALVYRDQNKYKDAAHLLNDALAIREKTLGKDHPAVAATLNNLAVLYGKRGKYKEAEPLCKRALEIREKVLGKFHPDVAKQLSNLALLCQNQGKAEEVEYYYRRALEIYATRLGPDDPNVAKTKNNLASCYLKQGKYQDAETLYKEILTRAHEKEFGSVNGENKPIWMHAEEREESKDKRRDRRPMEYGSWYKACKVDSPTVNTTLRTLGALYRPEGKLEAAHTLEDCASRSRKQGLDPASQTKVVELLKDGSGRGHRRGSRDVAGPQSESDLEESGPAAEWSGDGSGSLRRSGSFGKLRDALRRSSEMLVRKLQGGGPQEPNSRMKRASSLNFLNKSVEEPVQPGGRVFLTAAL

“mCherry-tagged DIC1a (dynein intermediate chain 1, isoform a), wild-type (from UniProt Q63100) WD1&2AA”: the values for the ratio to parent in assay [1] (p = 0.039 vs WT) and in assay [2] (p = 0.014 vs WT) were 0.47 and 0.53, respectively.
A word on the Kd: it is the constant that tells how readily two partners part at equilibrium. “WD1^pept, TAMRA-conjugated 11-amino-acid peptide centered on the first tryptophan motif of DIC1” displayed a Kd in assay [3] of 9.18 µM.
Regarding “mCherry-tagged DIC1a (dynein intermediate chain 1, isoform a), wild-type (from UniProt Q63100) WD1AA”, the ratio to parent is 0.93 in assay [1] (p = 1 vs WT) and 0.77 in assay [2] (p = 0.4 vs WT).
On to “mCherry-tagged DIC1a (dynein intermediate chain 1, isoform a), wild-type (from UniProt Q63100) WD2AA”, for which the values for the ratio to parent in assay [1] (p = 0.08 vs WT) and in assay [2] (p = 0.064 vs WT) were 0.53 and 0.63, respectively.

Values taken from paper PMC4893161, “The Dynamic Localization of Cytoplasmic Dynein in Neurons Is Driven by Kinesin-1” (Neuron, 2016).
